Results on three molecules are retold here after patent US9862971B2 (BUNDESREPUBLIK DEUTSCHLAND, LETZTVERTRETEN DURCH DEN …, dated 2018).

Common to all, as to test: cell-based or functional assay
The assay “Human SLAM (signaling …)” deals with T1, Human SLAM (signaling lymphocyte-activation molecule) (human, UniProt Q13291).
T1 sequence: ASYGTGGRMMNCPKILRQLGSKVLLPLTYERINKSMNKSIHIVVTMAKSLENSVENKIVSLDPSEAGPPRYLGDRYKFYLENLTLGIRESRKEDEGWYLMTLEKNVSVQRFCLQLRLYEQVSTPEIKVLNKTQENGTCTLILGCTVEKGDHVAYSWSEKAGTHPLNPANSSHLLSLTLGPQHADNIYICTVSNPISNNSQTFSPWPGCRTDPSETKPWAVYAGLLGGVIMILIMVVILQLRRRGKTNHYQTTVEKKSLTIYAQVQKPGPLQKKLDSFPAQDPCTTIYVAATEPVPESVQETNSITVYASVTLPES

In assay [1] the target is T2, CD46 (human, UniProt P15529).
The target in another assay is EGF-receptor (Homo sapiens (Human), UniProt P00533).
Assay [2] concerns the target T2, CD46. This is another data set of the same source.
Another assay has as its target human CD20 (human, UniProt P11836).

B1: HmutEGFΔ24+4A (other)
chain: MAAAANREHLMIDRPYVLLAVLFVMFLSLIGLLAIAGIRLHRAAIYTAEIHKSLSTNLDVTNSIEHQVKDVLTPLFKIIGDEVGLRTPQRFTDLVKFISDKIKFLNPDREYDFRDLTWCINPPERIKLDYDQYCADVAAEELMNALVNSTLLETRTTNQFLAVSKGNCSGPTTIRGQFSNMSLSLLDLYLGRGYNVSSIVTMTSQGMYGGTYLVEKPNLSSKRSELSQLSMYRVFEVGVIRNPGLGAPVFHMTNYLEQPVSNDLSNCMVALGELKLAALCHGEDSITIPYQGSGKGVSFQLVKLGVWKSPTDMQSWVPLSTDDPVIDRLYLSSHRGVIADNQAKWAVPTTRTDDKLRMETCFQQACKGKIQALCENPEWAPLKDNRIPSYGVLSVDLSLTVELKIKIASGFGPLITHGSGMDLYKSNHNNVYWLTIPPMKNLALGVINTLEWIPRFKVSPALFTVPIKEAGGDCHAPTYLPAEVDGDVKLSSNLVILPGQDLQYVLATYDTSAVEHAVVYYVYSPSRLSSYFYPFRLPIKGVPIELQVECFTWDQKLWCRHFCVLADSESGGHITHSGMVGMGVSCTVTREDGTNAAQPAMANSDSECPLSHDGYCLHDGVCMYIEALDKYACNCVVGYIGERCQYRDLKWWELRAAARGSHHHHHH
In the case of B1, the “titer [t.u./ml] of HIV-1 vector particles on CHO-hSLAM cells, concentrated supernatant” value in the assay with Human SLAM (signaling …) turned out to be 960 t.u./ml. Further, in the assay with CD46 [1], the “titer [t.u./ml] of HIV-1 vector particles on CHO-BC1 cells, concentrated supernatant” value was 800 t.u./ml. Further, the “titer [t.u./ml] of HIV-1 vector particles on A-431 cells, concentrated supernatant” value in the assay with EGF-receptor was found to be 58000 t.u./ml.

B2: HmutscFvCD20Δ18 (other)
chain: MGSRIVINREHLMIDRPYVLLAVLFVMFLSLIGLLAIAGIRLHRAAIYTAEIHKSLSTNLDVTNSIEHQVKDVLTPLFKIIGDEVGLRTPQRFTDLVKFISDKIKFLNPDREYDFRDLTWCINPPERIKLDYDQYCADVAAEELMNALVNSTLLETRTTNQFLAVSKGNCSGPTTIRGQFSNMSLSLLDLYLGRGYNVSSIVTMTSQGMYGGTYLVEKPNLSSKRSELSQLSMYRVFEVGVIRNPGLGAPVFHMTNYLEQPVSNDLSNCMVALGELKLAALCHGEDSITIPYQGSGKGVSFQLVKLGVWKSPTDMQSWVPLSTDDPVIDRLYLSSHRGVIADNQAKWAVPTTRTDDKLRMETCFQQACKGKIQALCENPEWAPLKDNRIPSYGVLSVDLSLTVELKIKIASGFGPLITHGSGMDLYKSNHNNVYWLTIPPMKNLALGVINTLEWIPRFKVSPALFTVPIKEAGGDCHAPTYLPAEVDGDVKLSSNLVILPGQDLQYVLATYDTSAVEHAVVYYVYSPSRLSSYFYPFRLPIKGVPIELQVECFTWDQKLWCRHFCVLADSESGGHITHSGMVGMGVSCTVTREDGTNAAQPAIEGRMAQVQLVQSGAELVKPGASVKMSCKASGYTFTSYNMHWVKQTPGQGLEWIGAIYPGNGDTSYNQKFKGKATLTADKSSSTAYMQLSSLTSEDSAVYYCARAQLRPNYWYFDVWGAGTTVTVSKISGGGGSGGGGSGGGGSGGSSDIVLSQSPAILSASPGEKVTMTCRASSSVSYMHWYQQKPGSSPKPWIYATSNLASGVPARFSGSGSGTSYSLTISRVEAEDAATYYCQQWISNPPTFGAGTKLELKAAARGSHHHHHH
On to B2, for which, in the assay with CD46 [2], the “titer [t.u./ml] of HIV-1 vector particles on HT1080 cells, concentrated supernatant” value was 980 t.u./ml. The “titer [t.u./ml] of HIV-1 vector particles on HT1080-CD20 cells, concentrated supernatant” value in the assay with human CD20 came to 200000 t.u./ml.

B3: HmutscFvCD20Δ24+4A (other)
chain: MAAAANREHLMIDRPYVLLAVLFVMFLSLIGLLAIAGIRLHRAAIYTAEIHKSLSTNLDVTNSIEHQVKDVLTPLFKIIGDEVGLRTPQRFTDLVKFISDKIKFLNPDREYDFRDLTWCINPPERIKLDYDQYCADVAAEELMNALVNSTLLETRTTNQFLAVSKGNCSGPTTIRGQFSNMSLSLLDLYLGRGYNVSSIVTMTSQGMYGGTYLVEKPNLSSKRSELSQLSMYRVFEVGVIRNPGLGAPVFHMTNYLEQPVSNDLSNCMVALGELKLAALCHGEDSITIPYQGSGKGVSFQLVKLGVWKSPTDMQSWVPLSTDDPVIDRLYLSSHRGVIADNQAKWAVPTTRTDDKLRMETCFQQACKGKIQALCENPEWAPLKDNRIPSYGVLSVDLSLTVELKIKIASGFGPLITHGSGMDLYKSNHNNVYWLTIPPMKNLALGVINTLEWIPRFKVSPALFTVPIKEAGGDCHAPTYLPAEVDGDVKLSSNLVILPGQDLQYVLATYDTSAVEHAVVYYVYSPSRLSSYFYPFRLPIKGVPIELQVECFTWDQKLWCRHFCVLADSESGGHITHSGMVGMGVSCTVTREDGTNAAQPAIEGRMAQVQLVQSGAELVKPGASVKMSCKASGYTFTSYNMHWVKQTPGQGLEWIGAIYPGNGDTSYNQKFKGKATLTADKSSSTAYMQLSSLTSEDSAVYYCARAQLRPNYWYFDVWGAGTTVTVSKISGGGGSGGGGSGGGGSGGSSDIVLSQSPAILSASPGEKVTMTCRASSSVSYMHWYQQKPGSSPKPWIYATSNLASGVPARFSGSGSGTSYSLTISRVEAEDAATYYCQQWISNPPTFGAGTKLELKAAARGSHHHHHH
As for B3, the “titer [t.u./ml] of HIV-1 vector particles on HT1080 cells, concentrated supernatant” value with CD46 [2] is 200 t.u./ml. In addition, the “titer [t.u./ml] of HIV-1 vector particles on HT1080-CD20 cells, concentrated supernatant” value in the assay with human CD20 is 8600 t.u./ml.
